The values below come from the supplement of paper PMC12338614.

Sequences and labels used below:
B1: library; numbered along this chain (parent)
chain: MEVVDPQQLGMFTEGELMSVGMDTFIHRIDSTEVIYQPRRKRAKLIGKYLMGDLLGEGSYGKVKEVLDSETLCRRAVKILKKKKLRRIPNGEANVKKEIQLLRRLRHKNVIQLVDVLYNEEKQKMYMVMEYCVCGMQEMLDSVPEKRFPVCQAHGYFCQLIDGLEYLHSQGIVHKDIKPGNLLLTTGGTLKISDLGVAEALHPFAADDTCRTSQGSPAFQPPEIANGLDTFSGFKVDIWSAGVTLYNITTGLYPFEGDNIYKLFENIGKGSYAIPGDCGPPLSDLLKGMLEYEPAKRFSIRQIRQHSWFRKKHPPAEAPVPIPPSPDTKDRWRSMTVVPYLEDLHGADEDEDLFDIEDDIIYTQDFTVPGQVPEEEASHNGQRRGLPKAVCMNGTEAAQLSTKSRAEGRAPNPARKACSASSKIRRLSACKQQ

± gives the uncertainty stated by the source.

Variants of B1 are the subject of this data set. Description: STK11 functional score (HeLa growth suppression), rescaled enrichment; synonymous median = 1, nonsense median = 0 (normalised score). Conditions: with HeLa; variant type: missense. The protocol:
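Deep mutational scan (TileSeq/POPCode codon randomisation) of full-length codon-optimised STK11 cDNA integrated at a Bxb1 landing pad (AAVS1) in HeLa cells. Restoring functional STK11 suppresses HeLa proliferation. Variant frequencies were measured by NGS before and after about two weeks of growth. The error-corrected enrichment log-ratio was rescaled so that synonymous median = 1 and nonsense median = 0, scores above 1 were compressed, and codon-level and three biological replicate scores were combined; error is the bootstrapped standard error. Scale: synonymous median = 1, nonsense median = 0; below 0.5 = damaging.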
As for MEVVDPQQLGMFTEGELMSVGMDTFIHRIDSTEVIYQPRRKRAKLIGKYLMGDLLGEGSYGKVKEVLDSETLCRRAVKILKKKKLRRIPNGEANVKKEIQLLRRLRHKNVIQLVDVLYNEEKQKMYEVMEYCVCGMQEMLDSVPEKRFPVCQAHGYFCQLIDGLEYLHSQGIVHKDIKPGNLLLTTGGTLKISDLGVAEALHPFAADDTCRTSQGSPAFQPPEIANGLDTFSGFKVDIWSAGVTLYNITTGLYPFEGDNIYKLFENIGKGSYAIPGDCGPPLSDLLKGMLEYEPAKRFSIRQIRQHSWFRKKHPPAEAPVPIPPSPDTKDRWRSMTVVPYLEDLHGADEDEDLFDIEDDIIYTQDFTVPGQVPEEEASHNGQRRGLPKAVCMNGTEAAQLSTKSRAEGRAPNPARKACSASSKIRRLSACKQQ [M127E], the STK11 functional score is 1.59 ± 0.1.

As for MEVVDPQQLGMFTEGELMSVGMDTFIHRIDSTEVIYQPRRKRAKLIGKYLMGDLLGEGSYGKVKEVLDSETLCRRAVKILKKKKLRRIPNGEANVKKEIQLLRRLRHKNVIQLVDVLYNEEKQKMYAVMEYCVCGMQEMLDSVPEKRFPVCQAHGYFCQLIDGLEYLHSQGIVHKDIKPGNLLLTTGGTLKISDLGVAEALHPFAADDTCRTSQGSPAFQPPEIANGLDTFSGFKVDIWSAGVTLYNITTGLYPFEGDNIYKLFENIGKGSYAIPGDCGPPLSDLLKGMLEYEPAKRFSIRQIRQHSWFRKKHPPAEAPVPIPPSPDTKDRWRSMTVVPYLEDLHGADEDEDLFDIEDDIIYTQDFTVPGQVPEEEASHNGQRRGLPKAVCMNGTEAAQLSTKSRAEGRAPNPARKACSASSKIRRLSACKQQ [M127A], the STK11 functional score was found to be 1.5 ± 0.31.

Consider MEVVDPQQLGMFTEGELMSVGMDTFIHRIDSTEVIYQPRRKRAKLIGKYLMGDLLGEGSYGKVKEVLDSETLCRRAVKILKKKKLRRIPNGEANVKKEIQLLRRLRHKNVIQLVDVLYNEEKQKMYDVMEYCVCGMQEMLDSVPEKRFPVCQAHGYFCQLIDGLEYLHSQGIVHKDIKPGNLLLTTGGTLKISDLGVAEALHPFAADDTCRTSQGSPAFQPPEIANGLDTFSGFKVDIWSAGVTLYNITTGLYPFEGDNIYKLFENIGKGSYAIPGDCGPPLSDLLKGMLEYEPAKRFSIRQIRQHSWFRKKHPPAEAPVPIPPSPDTKDRWRSMTVVPYLEDLHGADEDEDLFDIEDDIIYTQDFTVPGQVPEEEASHNGQRRGLPKAVCMNGTEAAQLSTKSRAEGRAPNPARKACSASSKIRRLSACKQQ [M127D], for which the STK11 functional score turned out to be 0.289 ± 0.08.

As for MEVVDPQQLGMFTEGELMSVGMDTFIHRIDSTEVIYQPRRKRAKLIGKYLMGDLLGEGSYGKVKEVLDSETLCRRAVKILKKKKLRRIPNGEANVKKEIQLLRRLRHKNVIQLVDVLYNEEKQKMLMVMEYCVCGMQEMLDSVPEKRFPVCQAHGYFCQLIDGLEYLHSQGIVHKDIKPGNLLLTTGGTLKISDLGVAEALHPFAADDTCRTSQGSPAFQPPEIANGLDTFSGFKVDIWSAGVTLYNITTGLYPFEGDNIYKLFENIGKGSYAIPGDCGPPLSDLLKGMLEYEPAKRFSIRQIRQHSWFRKKHPPAEAPVPIPPSPDTKDRWRSMTVVPYLEDLHGADEDEDLFDIEDDIIYTQDFTVPGQVPEEEASHNGQRRGLPKAVCMNGTEAAQLSTKSRAEGRAPNPARKACSASSKIRRLSACKQQ [Y126L], the STK11 functional score worked out at 0.421 ± 0.13.

For the variant MEVVDPQQLGMFTEGELMSVGMDTFIHRIDSTEVIYQPRRKRAKLIGKYLMGDLLGEGSYGKVKEVLDSETLCRRAVKILKKKKLRRIPNGEANVKKEIQLLRRLRHKNVIQLVDVLYNEEKQKMHMVMEYCVCGMQEMLDSVPEKRFPVCQAHGYFCQLIDGLEYLHSQGIVHKDIKPGNLLLTTGGTLKISDLGVAEALHPFAADDTCRTSQGSPAFQPPEIANGLDTFSGFKVDIWSAGVTLYNITTGLYPFEGDNIYKLFENIGKGSYAIPGDCGPPLSDLLKGMLEYEPAKRFSIRQIRQHSWFRKKHPPAEAPVPIPPSPDTKDRWRSMTVVPYLEDLHGADEDEDLFDIEDDIIYTQDFTVPGQVPEEEASHNGQRRGLPKAVCMNGTEAAQLSTKSRAEGRAPNPARKACSASSKIRRLSACKQQ [Y126H], the STK11 functional score was 0.681 ± 0.86. For MEVVDPQQLGMFTEGELMSVGMDTFIHRIDSTEVIYQPRRKRAKLIGKYLMGDLLGEGSYGKVKEVLDSETLCRRAVKILKKKKLRRIPNGEANVKKEIQLLRRLRHKNVIQLVDVLYNEEKQKMMMVMEYCVCGMQEMLDSVPEKRFPVCQAHGYFCQLIDGLEYLHSQGIVHKDIKPGNLLLTTGGTLKISDLGVAEALHPFAADDTCRTSQGSPAFQPPEIANGLDTFSGFKVDIWSAGVTLYNITTGLYPFEGDNIYKLFENIGKGSYAIPGDCGPPLSDLLKGMLEYEPAKRFSIRQIRQHSWFRKKHPPAEAPVPIPPSPDTKDRWRSMTVVPYLEDLHGADEDEDLFDIEDDIIYTQDFTVPGQVPEEEASHNGQRRGLPKAVCMNGTEAAQLSTKSRAEGRAPNPARKACSASSKIRRLSACKQQ [Y126M], the STK11 functional score was 0.654 ± 0.64.

In the case of MEVVDPQQLGMFTEGELMSVGMDTFIHRIDSTEVIYQPRRKRAKLIGKYLMGDLLGEGSYGKVKEVLDSETLCRRAVKILKKKKLRRIPNGEANVKKEIQLLRRLRHKNVIQLVDVLYNEEKQKMPMVMEYCVCGMQEMLDSVPEKRFPVCQAHGYFCQLIDGLEYLHSQGIVHKDIKPGNLLLTTGGTLKISDLGVAEALHPFAADDTCRTSQGSPAFQPPEIANGLDTFSGFKVDIWSAGVTLYNITTGLYPFEGDNIYKLFENIGKGSYAIPGDCGPPLSDLLKGMLEYEPAKRFSIRQIRQHSWFRKKHPPAEAPVPIPPSPDTKDRWRSMTVVPYLEDLHGADEDEDLFDIEDDIIYTQDFTVPGQVPEEEASHNGQRRGLPKAVCMNGTEAAQLSTKSRAEGRAPNPARKACSASSKIRRLSACKQQ [Y126P], the STK11 functional score is -0.144 ± 0.083. Next, MEVVDPQQLGMFTEGELMSVGMDTFIHRIDSTEVIYQPRRKRAKLIGKYLMGDLLGEGSYGKVKEVLDSETLCRRAVKILKKKKLRRIPNGEANVKKEIQLLRRLRHKNVIQLVDVLYNEEKQKMGMVMEYCVCGMQEMLDSVPEKRFPVCQAHGYFCQLIDGLEYLHSQGIVHKDIKPGNLLLTTGGTLKISDLGVAEALHPFAADDTCRTSQGSPAFQPPEIANGLDTFSGFKVDIWSAGVTLYNITTGLYPFEGDNIYKLFENIGKGSYAIPGDCGPPLSDLLKGMLEYEPAKRFSIRQIRQHSWFRKKHPPAEAPVPIPPSPDTKDRWRSMTVVPYLEDLHGADEDEDLFDIEDDIIYTQDFTVPGQVPEEEASHNGQRRGLPKAVCMNGTEAAQLSTKSRAEGRAPNPARKACSASSKIRRLSACKQQ [Y126G]: 0.669 ± 0.13; MEVVDPQQLGMFTEGELMSVGMDTFIHRIDSTEVIYQPRRKRAKLIGKYLMGDLLGEGSYGKVKEVLDSETLCRRAVKILKKKKLRRIPNGEANVKKEIQLLRRLRHKNVIQLVDVLYNEEKQKMWMVMEYCVCGMQEMLDSVPEKRFPVCQAHGYFCQLIDGLEYLHSQGIVHKDIKPGNLLLTTGGTLKISDLGVAEALHPFAADDTCRTSQGSPAFQPPEIANGLDTFSGFKVDIWSAGVTLYNITTGLYPFEGDNIYKLFENIGKGSYAIPGDCGPPLSDLLKGMLEYEPAKRFSIRQIRQHSWFRKKHPPAEAPVPIPPSPDTKDRWRSMTVVPYLEDLHGADEDEDLFDIEDDIIYTQDFTVPGQVPEEEASHNGQRRGLPKAVCMNGTEAAQLSTKSRAEGRAPNPARKACSASSKIRRLSACKQQ [Y126W]: 0.105 ± 0.079; MEVVDPQQLGMFTEGELMSVGMDTFIHRIDSTEVIYQPRRKRAKLIGKYLMGDLLGEGSYGKVKEVLDSETLCRRAVKILKKKKLRRIPNGEANVKKEIQLLRRLRHKNVIQLVDVLYNEEKQKMSMVMEYCVCGMQEMLDSVPEKRFPVCQAHGYFCQLIDGLEYLHSQGIVHKDIKPGNLLLTTGGTLKISDLGVAEALHPFAADDTCRTSQGSPAFQPPEIANGLDTFSGFKVDIWSAGVTLYNITTGLYPFEGDNIYKLFENIGKGSYAIPGDCGPPLSDLLKGMLEYEPAKRFSIRQIRQHSWFRKKHPPAEAPVPIPPSPDTKDRWRSMTVVPYLEDLHGADEDEDLFDIEDDIIYTQDFTVPGQVPEEEASHNGQRRGLPKAVCMNGTEAAQLSTKSRAEGRAPNPARKACSASSKIRRLSACKQQ [Y126S]: 0.6 ± 0.1. With MEVVDPQQLGMFTEGELMSVGMDTFIHRIDSTEVIYQPRRKRAKLIGKYLMGDLLGEGSYGKVKEVLDSETLCRRAVKILKKKKLRRIPNGEANVKKEIQLLRRLRHKNVIQLVDVLYNEEKQKMVMVMEYCVCGMQEMLDSVPEKRFPVCQAHGYFCQLIDGLEYLHSQGIVHKDIKPGNLLLTTGGTLKISDLGVAEALHPFAADDTCRTSQGSPAFQPPEIANGLDTFSGFKVDIWSAGVTLYNITTGLYPFEGDNIYKLFENIGKGSYAIPGDCGPPLSDLLKGMLEYEPAKRFSIRQIRQHSWFRKKHPPAEAPVPIPPSPDTKDRWRSMTVVPYLEDLHGADEDEDLFDIEDDIIYTQDFTVPGQVPEEEASHNGQRRGLPKAVCMNGTEAAQLSTKSRAEGRAPNPARKACSASSKIRRLSACKQQ [Y126V], the STK11 functional score came to 0.762 ± 0.16. Under MEVVDPQQLGMFTEGELMSVGMDTFIHRIDSTEVIYQPRRKRAKLIGKYLMGDLLGEGSYGKVKEVLDSETLCRRAVKILKKKKLRRIPNGEANVKKEIQLLRRLRHKNVIQLVDVLYNEEKQKMTMVMEYCVCGMQEMLDSVPEKRFPVCQAHGYFCQLIDGLEYLHSQGIVHKDIKPGNLLLTTGGTLKISDLGVAEALHPFAADDTCRTSQGSPAFQPPEIANGLDTFSGFKVDIWSAGVTLYNITTGLYPFEGDNIYKLFENIGKGSYAIPGDCGPPLSDLLKGMLEYEPAKRFSIRQIRQHSWFRKKHPPAEAPVPIPPSPDTKDRWRSMTVVPYLEDLHGADEDEDLFDIEDDIIYTQDFTVPGQVPEEEASHNGQRRGLPKAVCMNGTEAAQLSTKSRAEGRAPNPARKACSASSKIRRLSACKQQ [Y126T] stands -0.0466 ± 0.081. For MEVVDPQQLGMFTEGELMSVGMDTFIHRIDSTEVIYQPRRKRAKLIGKYLMGDLLGEGSYGKVKEVLDSETLCRRAVKILKKKKLRRIPNGEANVKKEIQLLRRLRHKNVIQLVDVLYNEEKQKMFMVMEYCVCGMQEMLDSVPEKRFPVCQAHGYFCQLIDGLEYLHSQGIVHKDIKPGNLLLTTGGTLKISDLGVAEALHPFAADDTCRTSQGSPAFQPPEIANGLDTFSGFKVDIWSAGVTLYNITTGLYPFEGDNIYKLFENIGKGSYAIPGDCGPPLSDLLKGMLEYEPAKRFSIRQIRQHSWFRKKHPPAEAPVPIPPSPDTKDRWRSMTVVPYLEDLHGADEDEDLFDIEDDIIYTQDFTVPGQVPEEEASHNGQRRGLPKAVCMNGTEAAQLSTKSRAEGRAPNPARKACSASSKIRRLSACKQQ [Y126F], the STK11 functional score came to 0.719 ± 0.13. As to MEVVDPQQLGMFTEGELMSVGMDTFIHRIDSTEVIYQPRRKRAKLIGKYLMGDLLGEGSYGKVKEVLDSETLCRRAVKILKKKKLRRIPNGEANVKKEIQLLRRLRHKNVIQLVDVLYNEEKQKMRMVMEYCVCGMQEMLDSVPEKRFPVCQAHGYFCQLIDGLEYLHSQGIVHKDIKPGNLLLTTGGTLKISDLGVAEALHPFAADDTCRTSQGSPAFQPPEIANGLDTFSGFKVDIWSAGVTLYNITTGLYPFEGDNIYKLFENIGKGSYAIPGDCGPPLSDLLKGMLEYEPAKRFSIRQIRQHSWFRKKHPPAEAPVPIPPSPDTKDRWRSMTVVPYLEDLHGADEDEDLFDIEDDIIYTQDFTVPGQVPEEEASHNGQRRGLPKAVCMNGTEAAQLSTKSRAEGRAPNPARKACSASSKIRRLSACKQQ [Y126R], the STK11 functional score was 0.256 ± 0.18.
